The text below walks through data of paper PMC7808410 (Nature methods, 2021).

The labels stand for the following.
B1: E. coli glutamate decarboxylase GadB (enzyme)
chain: MDKKQVTDLRSELLDSRFGAKSISTIAESKRFPLHEMRDDVAFQIINDELYLDGNARQNLATFCQTWDDENVHKLMDLSINKNWIDKEEYPQSAAIDLRCVNMVADLWHAPAPKNGQAVGTNTIGSSEACMLGGMAMKWRWRKRMEAAGKPTDKPNLVCGPVQICWHKFARYWDVELREIPMRPGQLFMDPKRMIEACDENTIGVVPTFGVTYTGNYEFPQPLHDALDKFQADTGIDIDMHIDAASGGFLAPFVAPDIVWDFRLPRVKSISASGHKFGLAPLGCGWVIWRDEEALPQELVFNVDYLGGQIGTFAINFSRPAGQVIAQYYEFLRLGREGYTKVQNASYQVAAYLADEIAKLGPYEFICTGRPDEGIPAVCFKLKDGEDPGYTLYDLSERLRLRGWQVPAFTLGGEATDIVVMRIMCRRGFEMDFAELLLEDYKASLKYLSDHPKLQGIAQQNSFKHT
B2: E. coli OmpC outer membrane osmoporin channel (natural protein)
chain: AEVYNKDGNKLDLYGKVDGLHYFSDNKDVDGDQTYMRLGFKGETQVTDQLTGYGQWEYQIQGNSAENENNSWTRVAFAGLKFQDVGSFDYGRNYGVVYDVTSWTDVLPEFGGDTYGSDNFMQQRGNGFATYRNTDFFGLVDGLNFAVQYQGKNGNPSGEGFTSGVTNNGRDALRQNGDGVGGSITYDYEGFGIGGAISSSKRTDAQNTAAYIGNGDRAETYTGGLKYDANNIYLAAQYTQTYNATRVGSLGWANKAQNFEAVAQYQFDFGLRPSLAYLQSKGKNLGRGYDDEDILKYVDVGATYYFNKNMSTYVDYKINLLDDNQFTRDAGINTDNIVALGLVYQF
B3: E. coli OmpF porin channel (natural protein)
chain: AEIYNKDGNKVDLYGKAVGLHYFSKGNGENSYGGNGDMTYARLGFKGETQINSDLTGYGQWEYNFQGNNSEGADAQTGNKTRLAFAGLKYADVGSFDYGRNYGVVYDALGYTDMLPEFGGDTAYSDDFFVGRVGGVATYRNSNFFGLVDGLNFAVQYLGKNERDTARRSNGDGVGGSISYEYEGFGIVGAYGAADRTNLQEAQPLGNGKKAEQWATGLKYDANNIYLAANYGETRNATPITNKFTNTSGFANKTQDVLLVAQYQFDFGLRPSIAYTKSKAKDVEGIGDVDLVNYFEVGATYYFNKNMSTYVDYIINQIDSDNKLGVGSDDTVAVGIVYQF

The data set concerns the molecule itself. The data set is described as follows: cryo-EM structure.
As to B1, the stoichiometry N (usually the number of molecules, sites or subunits per partner or assembly) came to 6.

Regarding B2, the “stoichiometry N” value is 3.

With B3, the “stoichiometry N” value turned out to be 3.
